One may read the stoichiometry N as the number of molecules, sites or subunits per partner or assembly.

This note sets out measurements from publication PMC7859239.

Experiment [1] addresses Schizosaccharomyces pombe RNA polymerase I (Schizosaccharomyces pombe (endogenous in S. pombe)) (UniProt P15398). The experiment is described as follows: negative-stain EM with 2D classification; peak fraction of the analytical SEC in low-salt buffer S300 (300 mM KAc); uranyl formate; 24,462 particles classified into 16 classes.
For experiment [2] the target is unchanged. Kind of experiment: negative-stain EM with 2D classification; peak fraction of the analytical SEC in high-salt buffer S1500 (1.5 M KAc); uranyl formate; 20,054 particles classified into 16 classes.
For experiment [3] the target is unchanged. Kind of experiment: cryo-EM structure; dimer particles in the 'monomer' dataset of BS3-crosslinked Sp Pol I after SEC (5 mM HEPES pH 7.8, 1 mM MgCl2, 10 µM ZnCl2, 150 mM KCl, 5 mM DTT); C2 symmetry imposed; 4.5 Å; model by placing two monomers and rigid body fitting of subdomains.

For “Schizosaccharomyces pombe RNA polymerase I, P15398 1-1689; Q9P7X8 1-1174; O94616 1-348; Q09177 1-125; O43036 1-173; Q9P7P1 1-147; O94703 1-119; Q09191 1-210; P36595 1-142; Q92399 1-125; O13877 1-71; P48011 1-63; O14086 1-425; Q9USZ4 1-251”, the percent of particles in a dimeric state in experiment [1] is less than 2%. Further, in experiment [2], the percent of Pol I molecules in a dimeric state was determined as 49% and the percent of identified particles in a dimeric state came to 32%. This substance also displayed a stoichiometry N in experiment [3] of 2.
